Drawing on US20250340657A1 (CANTARGIA, published 2025), this text covers Kd, koff and kon for 14 molecules.

To fix the notation:
B1: CAN04 (antibody, V domains shown)
VH: QVQLQQSGPELLKPGASVKISCKASGYAFSSSWMNWVKQRPGKGLEWIGRIYPGDGNTHYSGKFKGKATLTADKSSSIAYMQLSSLTSEDSAVYFCGEGYLDPMDYWGQGTSVTVSS
VL: DIQMTQTTSSLSASLGDRVTISCSASQGINNYLNWYQQKPDGTVKLLIHYTSGLHAGVPSRFSGSGSGTDYSLTISNLEPEDVATYYCQQYSILPWTFGGGTKLEIKR
notes: Murine-derived monoclonal IgG; It was PE-conjugated on primary cells and AF488-labelled for confocal microscopy; also called exemplary antibody of the invention
B2: hCAN04 Variant 6 (antibody, human IgG1, kappa, V domains shown)
VH: QVQLVQSGAEVKKPGSSVKVSCKASGYAFTSSWMNWVRQAPGQGLEWMGRIYPGDGNTHYAQKFQGRVTLTADKSTSTAYMELSSLRSEDTAVYYCGEGYLDPMDYWGQGTLVTVSS
VL: DIQMTQSPSSLSASVGDRVTITCQASQGINNYLNWYQQKPGKAPKLLIHYTSGLHAGVPSRFSGSGSGTDYTLTISSLEPEDVATYYCQQYSILPWTFGGGTKVEIKR
notes: Human IgG1za / kappa, expressed in CHOK1SV cells; also called Var6; humanized variant 6 of CAN04
B3: hCAN04 Variant 10 (antibody, human IgG1, kappa, V domains shown)
VH: B2 VH
VL: B2 VL with Y71F
notes: Human IgG1za / kappa, expressed in CHOK1SV cells; also called Var10; humanized variant 10 of CAN04
B4: hCAN04 Variant 2 (antibody, human IgG1, kappa, V domains shown)
VH: B2 VH
VL: B2 VL with Q24S, E79Q
notes: Human IgG1za / kappa, expressed in CHOK1SV cells; also called Var2; humanized variant 2 of CAN04
B5: hCAN04 Variant 1 (antibody, human IgG1, kappa, V domains shown)
VH: B2 VH with T30S
VL: B2 VL with Q24S, E79Q
notes: Human IgG1za / kappa, expressed in CHOK1SV cells; also called Var1; humanized variant 1 of CAN04
B6: hCAN04 Variant 11 (antibody, human IgG1, kappa, V domains shown)
VH: B2 VH with A28T, Q43K, N57Q
VL: B2 VL with Y71F
notes: Human IgG1za / kappa, expressed in CHOK1SV cells; also called Var11; humanized variant 11 of CAN04
B7: hCAN04 Variant 5 (antibody, human IgG1, kappa, V domains shown)
VH: B2 VH with T30S
VL: B2 VL
notes: Human IgG1za / kappa, expressed in CHOK1SV cells; also called Var5; humanized variant 5 of CAN04
B8: hCAN04 Variant 9 (antibody, human IgG1, kappa, V domains shown)
VH: B2 VH with T30S
VL: B2 VL with Y71F
notes: Human IgG1za / kappa, expressed in CHOK1SV cells; also called Var9; humanized variant 9 of CAN04
B9: hCAN04 Variant 12 (antibody, human IgG1, kappa, V domains shown)
VH: B2 VH with A28T, Q43K, N57Q, L70I
VL: B2 VL with Y71F
notes: Human IgG1za / kappa, expressed in CHOK1SV cells; also called Var 12; humanized variant 12 of CAN04
B10: hCAN04 Variant 4 (antibody, human IgG1, kappa, V domains shown)
VH: B2 VH with A28T, Q43K, N57Q, L70I
VL: B2 VL with Q24S, E79Q
notes: Human IgG1za / kappa, expressed in CHOK1SV cells; also called Var4; humanized variant 4 of CAN04
B11: hCAN04 Variant 3 (antibody, human IgG1, kappa, V domains shown)
VH: B2 VH with A28T, Q43K, N57Q
VL: B2 VL with Q24S, E79Q
notes: Human IgG1za / kappa, expressed in CHOK1SV cells; also called Var3; humanized variant 3 of CAN04
B12: hCAN04 Variant 8 (antibody, human IgG1, kappa, V domains shown)
VH: B2 VH with A28T, Q43K, N57Q, L70I
VL: B2 VL
notes: Human IgG1za / kappa, expressed in CHOK1SV cells; also called Var8; humanized variant 8 of CAN04
B13: hCAN04 Variant 7 (antibody, human IgG1, kappa, V domains shown)
VH: B2 VH with A28T, Q43K, N57Q
VL: B2 VL
notes: Human IgG1za / kappa, expressed in CHOK1SV cells; also called Var7; humanized variant 7 of CAN04
B14: CAN04 (murine) as listed in Table 3 (antibody, human IgG1, kappa, V domains shown)
VH: B1 VH
VL: B1 VL
notes: Whether the footnotes apply to the row labelled '(murine)' is not certain

Changes are numbered by the printed parent chain.

For one assay, the target named is T1, human IL1RAP (analyte of the Biacore study) (human, UniProt Q9NPH3 21-367, limits assumed).
T1 construct: The methods say only 'the analyte (100 nM)'; The result sentence names it human IL1RAP; also called IL1-RAP protein; the analyte
Nature of the assay: SPR (Biacore T200), antibody captured on anti-mouse IgG, analyte 100 nM, 25 C. Here is the method:
Goat anti-mouse IgG was immobilized on a CM5 chip according to the technical manual of capture kit and standard operation principle of BIAcore T200 (Biacore Life Sciences, GE Healthcare Europe GmbH, Uppsala, Sweden).
The capture molecule surface was regenerated after each binding cycle using the manufacturer's recommended conditions.
After five cycles of start-up, each antibody (100 nM) was injected at a flow rate of 30 μl/min, for 120 s, at the start of the cycle; then the analyte (100 nM) was injected at a flow rate of 30 μl/min, for 120 s, followed by monitoring the dissociation phase for 300 s.
B1 had a Kd of 110 pM, a koff of 4.72e-05 s⁻¹ and a kon of 427000 M⁻¹ s⁻¹.

A further assay concerns the target T2, recombinant hIL1RAP 21-367 (human, UniProt Q9NPH3 21-367).
T2 construct: range 21-367; also called Rec hIL1RAP Domain123 (aa21-367); Domain123
As to the kind of experiment: indirect ELISA on coated hIL1RAP 21-367, three-fold dilutions from 3.5 nM. Here is the method:
An indirect ELISA assay was performed. All samples were analysed in duplicate. Nunc-MaxiSorp 96 Micro Well™ Plates were coated with 100 ng of recombinant hIL1RAP 21-367 (100 μl/well) diluted in 0.01M PBS, pH 7.4, and incubated overnight at 4° C. Plates were washed with ELISA washing buffer (0.01M PBS, 0.05% Tween 20, pH 7.4) followed by a blocking step using 150 μl/well of ELISA blocking solution (PBS, 0.5% BSA, 0.05% Tween 20, pH 7.4). After 1 h incubation at room temperature (RT) on agitation the plates were washed again using ELISA washing buffer. Samples were diluted in three fold serial dilution (ranging from 1000 ng/ml to 0.5 ng/ml) in ELISA blocking solution and then transferred to the ELISA plate, 100 μl/well. Plates were incubated at RT for 1 h on agitation and then washed with ELISA washing solution. 100 μl/well of rabbit anti-mouse IgG conjugated to Alkaline Phosohatase (DAKO, 1:1000) was added and incubated 1 hour at RT on agitation. The plates were washed followed by addition of substrate (4-Nitrophenyl phosphatise disodium salt hexahydrate, SIGMA, 1 mg/ml), 100 μl/well. The plates were thereafter incubated at RT on agitation and absorbance at 405 nm measured consecutively for 30 min. Absorbance at 0 min was taken as background signal.
An indirect ELISA assay was performed as described above with the alteration that the samples were diluted in a three-fold serial dilution starting at 3.5 nM and run in replicates of four.
For the molecule B2, the Kd stood at 173 pM.
On to B3, for which the Kd worked out at 301 pM.
Turning to B4, the Kd was 171 pM.
On the same count and under the same terms, the value for B5 was 125 pM.
Still for that read-out and setting: the value for B6 was 504 pM.
Regarding B7, the Kd turned out to be 135 pM.
As for B8, the Kd amounted to 210 pM.
As to B9, the Kd amounted to 620 pM.
On the same count and under the same terms, the value for B10 was 470 pM; that for B11 was 450 pM.
Turning to B12, the Kd was determined as 402 pM.
With B13, the Kd was determined as 526 pM.
As to B14, the Kd came to 88 pM.
